These results are taken from US20240352080A1 (Seagen, published 2024).

The target in the assay is T1, CD47 (UniProt Q08722 19-323, limits assumed).
T1 construct: whole, on cells; L540cy and SW780 are the cell lines named
In words: saturation binding, flow cytometry on CD47-expressing L540cy cells.

The EC50 is the concentration giving half of the maximal effect. Lower therefore signals a more potent agent.

B1: hB6H12.3 (unmasked parent) (antibody, V domains shown)
VH: EVQLLESGGGLVQPGGSLRLSCAASGFTFSGYGMSWVRQAPGKRLEWVATITSGGTYTYYPDSVKGRFTISRDNSKNTLYLQMNSLRAEDTAIYFCARSLAGNAMDYWGQGTLVTVSS
VL: EIVMTQSPDFQSVTPKEKVTLTCRASQTISDYLHWYQQKPDQSPKLLIKFASQSISGVPSRFSGSGSGSDFTLTINSLEAEDAATYYCQNGHGFPRTFGQGTKLEIKR
For the molecule B1, the EC50 was 21 nM.
